According to paper PMC8160579 (The Journal of Cell Biology, 2021):
Where no end group is shown, it is not given here.

B1: biotinylated SAMM50 LIR peptide (residues 18–41) (peptide)
peptide: DFGGLGEEAEFVEVEPEAKQEILE
modifications: also: biotinylated, position not given here
B2: GABARAP Q59E (natural protein)
chain: MKFVYKEEHPFEKRRSEGEKIRKKYPDRVPVIVEKAPKARIGDLDKKKYLVPSDLTVGEFYFLIRKRIHLRAEDALFFFVNNVIPPTSATMGQLYQEHHEEDFFLYIAYSDESVYGL
B3: Myc-SAMM50 WT, in vitro translated (natural protein)
chain: MGTVHARSLEPLPSSGPDFGGLGEEAEFVEVEPEAKQEILENKDVVVQHVHFDGLGRTKDDIIICEIGDVFKAKNLIEVMRKSHEAREKLLRLGIFRQVDVLIDTCQGDDALPNGLDVTFEVTELRRLTGSYNTMVGNNEGSMVLGLKLPNLLGRAEKVTFQFSYGTKETSYGLSFFKPRPGNFERNFSVNLYKVTGQFPWSSLRETDRGMSAEYSFPIWKTSHTVKWEGVWRELGCLSRTASFAVRKESGHSLKSSLSHAMVIDSRNSSILPRRGALLKVNQELAGYTGGDVSFIKEDFELQLNKQLIFDSVFSASFWGGMLVPIGDKPSSIADRFYLGGPTSIRGFSMHSIGPQSEGDYLGGEAYWAGGLHLYTPLPFRPGQGGFGELFRTHFFLNAGNLCNLNYGEGPKAHIRKLAECIRWSYGAGIVLRLGNIARLELNYCVPMGVQTGDRICDGVQFGAGIRFL

Experiments:
[1] = target: LC3A, purified (human, UniProt Q9H492 1-121); assay: BLI
[2] = target: GABARAPL1, purified (human, UniProt Q9H0R8 1-117); assay: BLI
GABARAPL1, purified, sequence (Q9H0R8 whole entry): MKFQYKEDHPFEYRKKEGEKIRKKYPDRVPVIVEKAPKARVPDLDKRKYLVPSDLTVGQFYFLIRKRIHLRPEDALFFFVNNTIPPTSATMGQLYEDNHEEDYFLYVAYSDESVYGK

[3] = target: GABARAP, purified (human, UniProt O95166 1-117); assay: BLI
GABARAP, purified, sequence (O95166 whole entry): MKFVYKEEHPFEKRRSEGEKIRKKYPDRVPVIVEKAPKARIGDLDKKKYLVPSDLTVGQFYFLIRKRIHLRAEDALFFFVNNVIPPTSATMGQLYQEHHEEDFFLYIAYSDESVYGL

[4] = target: LC3C, purified (human, UniProt Q9BXW4 1-126); assay: BLI
LC3C, purified, sequence (Q9BXW4 1-126): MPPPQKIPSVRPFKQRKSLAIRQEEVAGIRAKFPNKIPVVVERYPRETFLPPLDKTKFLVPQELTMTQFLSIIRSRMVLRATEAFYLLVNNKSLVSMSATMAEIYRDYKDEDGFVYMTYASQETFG

[5] = target: B1; assay: BLI
[6] = target: GST-GABARAP Y49A (human, UniProt O95166 1-117, Y49A); assay: pull-down

Binder: B1
- Kd [1]: 27.6 µM
- Kd [2]: 10 µM
- Kd [3]: 23.9 µM
- Kd [4]: 57.2 µM

Binder: B2
- fold reduction of binding relative to WT GABARAP [5]: > 3.5 fold

Binder: B3
- reduction in binding relative to WT GABARAP [6]: > 60%
